Experimental data taken from patent publication US20050032692A1 (BOARD OF TRUSTEES OF THE UNIVERSITY OF ILLINOIS, published 2005).

Tests used:
GFP-FoxM1B 1-688 protein = target: T1, GFP-FoxM1B 1-688 protein (human, UniProt Q08050 1-703); assay: Co-IP from transfected U2OS extracts
T1 construct: C-terminal truncation; construction not described; not shown: GFP
T1 sequence: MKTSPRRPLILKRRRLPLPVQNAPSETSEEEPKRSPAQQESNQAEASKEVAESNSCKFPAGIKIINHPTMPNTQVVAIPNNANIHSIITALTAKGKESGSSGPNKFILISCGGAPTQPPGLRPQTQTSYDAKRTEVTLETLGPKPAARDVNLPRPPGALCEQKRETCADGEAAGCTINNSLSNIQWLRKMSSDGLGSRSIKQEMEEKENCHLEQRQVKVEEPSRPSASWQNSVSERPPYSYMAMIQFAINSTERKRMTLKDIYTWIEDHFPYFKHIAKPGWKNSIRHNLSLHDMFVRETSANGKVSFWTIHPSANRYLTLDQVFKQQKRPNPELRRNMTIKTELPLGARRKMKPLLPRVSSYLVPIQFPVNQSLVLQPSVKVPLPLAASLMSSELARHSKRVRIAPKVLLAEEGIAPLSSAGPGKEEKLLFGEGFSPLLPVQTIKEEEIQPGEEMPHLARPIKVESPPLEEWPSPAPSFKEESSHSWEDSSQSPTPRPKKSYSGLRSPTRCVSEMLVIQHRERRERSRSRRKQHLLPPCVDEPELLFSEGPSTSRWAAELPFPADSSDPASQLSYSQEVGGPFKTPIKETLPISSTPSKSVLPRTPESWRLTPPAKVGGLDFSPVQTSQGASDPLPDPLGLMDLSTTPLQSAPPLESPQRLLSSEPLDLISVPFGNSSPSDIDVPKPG

Cdk2 protein = Cdk2 protein (UniProt P24941 1-298); assay: Co-IP from transfected U2OS extracts with Cdk2 antibody, Western blot with T7 tag antibody

B1: HA-p19^ARF protein, wild type (other, UniProt Q64364 1-169, looked up, not shown: small tags and cut ends)
chain: MGRRFLVTVRIQRAGRPLQERVFLVKFVRSRRPRTASCALAFVNMLLRLERILRRGPHRNPGPGDDDGQRSRSSSSAQLRCRFELRGPHYLLPPGARRSAGRLPGHAGGAARVRGSAGCARCLGSPAARLGPRAGTSRHRAIFAFRWVLFVFRWVVFVYRWERRPDRRA
notes: also called HA tagged p19; WT p19
GFP-FoxM1B 1-688 protein
  binding result: no binding

B2: CMV T7-FoxM1B L641A mutant protein (other, not shown: small tags and cut ends)
chain: MKTSPRRPLILKRRRLPLPVQNAPSETSEEEPKRSPAQQESNQAEASKEVAESNSCKFPAGIKIINHPTMPNTQVVAIPNNANIHSIITALTAKGKESGSSGPNKFILISCGGAPTQPPGLRPQTQTSYDAKRTEVTLETLGPKPAARDVNLPRPPGALCEQKRETCADGEAAGCTINNSLSNIQWLRKMSSDGLGSRSIKQEMEEKENCHLEQRQVKVEEPSRPSASWQNSVSERPPYSYMAMIQFAINSTERKRMTLKDIYTWIEDHFPYFKHIAKPGWKNSIRHNLSLHDMFVRETSANGKVSFWTIHPSANRYLTLDQVFKQQKRPNPELRRNMTIKTELPLGARRKMKPLLPRVSSYLVPIQFPVNQSLVLQPSVKVPLPLAASLMSSELARHSKRVRIAPKVLLAEEGIAPLSSAGPGKEEKLLFGEGFSPLLPVQTIKEEEIQPGEEMPHLARPIKVESPPLEEWPSPAPSFKEESSHSWEDSSQSPTPRPKKSYSGLRSPTRCVSEMLVIQHRERRERSRSRRKQHLLPPCVDEPELLFSEGPSTSRWAAELPFPADSSDPASQLSYSQEVGGPFKTPIKETLPISSTPSKSVLPRTPESWRLTPPAKVGGLDFSPVQTSQGASDPLPDPLGAMDLSTTPLQSAPPLESPQRLLSSEPLDLISVPFGNSSPSDIDVPKPGSPEPQVSGLAANRSLTEGLVLDTMNDSLSKILLDISFPGLDEDPLGPDNINWSQFIPELQ
notes: also called CMV FoxM1B L641A
Cdk2 protein
  binding result: no binding
